# Measured values as given in paper PMC7984168, “Heat Shock Protein HSP24 Is Involved in the BABA-Induced Resistance to Fungal Pathogen in Postharvest Grapes Underlying an NPR1-Dependent Manner”.
# B1: PR2 promoter HSE probe (dsDNA)
# DNA 1: CATCTCAATATCAATATTTAAGAACTTTCTAATAAAATCATCCTTATCCGG
# DNA 2: CCGGATAAGGATGATTTTATTAGAAAGTTCTTAAATATTGATATTGAGATG
# B2: PR1 promoter HSE probe (dsDNA)
# DNA 1: GGCCCGCATGAGTTACAACAAGAAGAAATTTCAAATATTGCTCTCCGTGG
# DNA 2: CCACGGAGAGCAATATTTGAAATTTCTTCTTGTTGTAACTCATGCGGGCC
# B3: PR5 promoter HSE probe (dsDNA)
# DNA 1: GGAACTGATTCCCTAAAACAGAAAAGAATGTATGAACCTTCCTAAAATAC
# DNA 2: GTATTTTAGGAAGGTTCATACATTCTTTTCTGTTTTAGGGAATCAGTTCC
# Biological target: VvHSP24 (class B HSP/HSF, AtHSFB1 ortholog) (Vitis vinifera, UniProt A0ACM8QKQ1 1-286)
# Experiment: EMSA; LightShift chemiluminescent EMSA kit (Pierce); buffer, salt, pH and temperature not stated; 200-fold mutant competitor
# Conditions: protein: recombinant; tags: His (pCzn1); label: 5' biotin
# VvHSP24 (class B HSP/HSF, AtHSFB1 ortholog), sequence (A0ACM8QKQ1 entry or part of it): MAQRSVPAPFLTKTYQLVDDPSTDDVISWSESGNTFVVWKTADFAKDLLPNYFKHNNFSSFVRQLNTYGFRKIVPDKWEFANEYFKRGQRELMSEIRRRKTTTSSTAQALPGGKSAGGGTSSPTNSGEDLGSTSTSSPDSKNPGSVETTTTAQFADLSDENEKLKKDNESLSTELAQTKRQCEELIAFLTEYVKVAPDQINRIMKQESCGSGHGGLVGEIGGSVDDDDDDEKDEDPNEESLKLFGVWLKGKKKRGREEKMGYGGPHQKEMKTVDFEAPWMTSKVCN
row,Binder,binding result
1,B1,no binding
2,B2,no binding
3,B3,no binding
